Tests used:
Assay in all cases: ELISA
Conditions in all cases: both partners purified
[1] = target: A/Aichi/2/68 (H3N2A) recombinant hemagglutinin (HA) (Influenza A virus A/Aichi/2/1968 …, UniProt T2HNI1)
[2] = target: A/Perth/16/2009 (H3N2P) recombinant hemagglutinin (HA) (Influenza A virus A/Perth/16/2009 (H3N2), UniProt C6KNH7, strain)
[3] = target: A/California/07/2009 (pH1N1) recombinant hemagglutinin (HA) (Influenza A virus A/California/07/2009 …, UniProt C3W5X2, strain)
[4] = target: A/New Caledonia/20/1999 (NC H1N1) recombinant hemagglutinin (HA) (Influenza A virus A/New …, UniProt Q6WG00, strain)

Measured: binding result

B1: F045-092 human IgG4 (antibody, V domains shown)
VH: EVQLVESGAEVKKPGSSVKVSCRASGTFYKYAINWVRQAPGQGLEWMGGIIPFFGTTNYAQKFQGRLTITADGSTNTAYMQLDSLRSEDTAVYYCAGPSITESHYCLDCAAKDYYYGLDVWGQGTTVTVSS
VL: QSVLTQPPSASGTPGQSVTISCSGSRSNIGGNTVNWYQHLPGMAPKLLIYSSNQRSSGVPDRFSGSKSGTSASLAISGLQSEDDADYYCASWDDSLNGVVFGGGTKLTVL
notes: also called F045-092 IgG4; source: HEK-293, transfected (pTT5), purified from cell culture supernatant (MabSelect); copies: 2 + 2
binds: [1] | [2]

B2: F045-092 human IgG1 with a mouse IgG1 hinge (antibody, V domains shown)
VH: EVQLVESGAEVKKPGSSVKVSCRASGTFYKYAINWVRQAPGQGLEWMGGIIPFFGTTNYAQKFQGRLTITADGSTNTAYMQLDSLRSEDTAVYYCAGPSITESHYCLDCAAKDYYYGLDVWGQGTTVTVSS
VL: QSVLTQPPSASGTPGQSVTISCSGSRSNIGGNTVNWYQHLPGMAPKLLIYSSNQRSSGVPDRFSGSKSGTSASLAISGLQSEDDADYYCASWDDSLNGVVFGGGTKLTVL
notes: also called human IgG1 with a mouse hinge; copies: 2 + 2
binds: [1] | [2]

B3: CR6261 human IgG1 possessing a mouse IgG1 hinge (antibody, V domains shown)
VH: EVQLVESGAEVKKPGSSVKVSCKASGGPFRSYAISWVRQAPGQGPEWMGGIIPIFGTTKYAPKFQGRVTITADDFAGTVYMELSSLRSEDTAMYYCAKHMGYQVRETMDVWGKGTTVTVSS
VL: QSVLTQPPSVSAAPGQKVTISCSGSSSNIGNDYVSWYQQLPGTAPKLLIYDNNKRPSGIPDRFSGSKSGTSATLGITGLQTGDEANYYCATWDRRPTAYVVFGGGTKLTVL
notes: also called human IgG1 with a mouse IgG1 hinge; copies: 2 + 2
binds: [3] | [4]

B4: CR6261 human IgG4 (antibody, V domains shown)
VH: EVQLVESGAEVKKPGSSVKVSCKASGGPFRSYAISWVRQAPGQGPEWMGGIIPIFGTTKYAPKFQGRVTITADDFAGTVYMELSSLRSEDTAMYYCAKHMGYQVRETMDVWGKGTTVTVSS
VL: QSVLTQPPSVSAAPGQKVTISCSGSSSNIGNDYVSWYQQLPGTAPKLLIYDNNKRPSGIPDRFSGSKSGTSATLGITGLQTGDEANYYCATWDRRPTAYVVFGGGTKLTVL
notes: also called CR6261 IgG4; source: HEK-293, transfected (pTT5), purified from cell culture supernatant (MabSelect); copies: 2 + 2
binds: [3] | [4]

B5: FI6 human IgG1 with a mouse IgG1 hinge (antibody, V domains shown)
VH: QVQLVESGGGVVQPGRSLRLSCAASGFTFSTYAMHWVRQAPGKGLEWVAVISYDANYKYYADSVKGRFTISRDNSKNTLYLQMNSLRAEDTAVYYCAKDSQLRSLLYFEWLSQGYFDYWGQGTLVTVSS
VL: not shown
notes: also called VR-analogous human IgG1 with a mouse IgG1 hinge (FI6); copies: 2 + 2
binds: all assays above

B6: FI6 mouse IgG2a (antibody, V domains shown)
VH: QVQLVESGGGVVQPGRSLRLSCAASGFTFSTYAMHWVRQAPGKGLEWVAVISYDANYKYYADSVKGRFTISRDNSKNTLYLQMNSLRAEDTAVYYCAKDSQLRSLLYFEWLSQGYFDYWGQGTLVTVSS
VL: not shown
notes: also called VR-analogous mouse IgG2a (FI6); source: HEK-293, transfected (pTT5), purified from cell culture supernatant (Protein G); copies: 2 + 2
binds: all assays above

B7: FI6 mouse IgG1 (antibody, V domains shown)
VH: QVQLVESGGGVVQPGRSLRLSCAASGFTFSTYAMHWVRQAPGKGLEWVAVISYDANYKYYADSVKGRFTISRDNSKNTLYLQMNSLRAEDTAVYYCAKDSQLRSLLYFEWLSQGYFDYWGQGTLVTVSS
VL: not shown
notes: also called VR-analogous mouse IgG1 (FI6); source: HEK-293, transfected (pTT5), purified from cell culture supernatant (Protein G); copies: 2 + 2
binds: all assays above

B8: FI6 human IgG4 (antibody, V domains shown)
VH: QVQLVESGGGVVQPGRSLRLSCAASGFTFSTYAMHWVRQAPGKGLEWVAVISYDANYKYYADSVKGRFTISRDNSKNTLYLQMNSLRAEDTAVYYCAKDSQLRSLLYFEWLSQGYFDYWGQGTLVTVSS
VL: not shown
notes: also called VR-analogous human IgG4 (FI6); source: HEK-293, transfected (pTT5), purified from cell culture supernatant (MabSelect); copies: 2 + 2
binds: all assays above
